Measurements taken from patent publication US10272135B2, “Apolipoprotein O and fragments thereof for inducing apoptosis in a cancerous cell” (INSERM (INSTITUT NATIONAL DE LA SANTÉ ET DE LA RECHERCHE …, priority 2014, dated 2019).

Key:
H9c2 cardiac myoblasts = experiment: Lipid profiling (FAME, diglycerides, triglycerides, BODIPY-palmitate) in cardiac myoblasts; type: cell-based
From the text: After ethical committee approval, all patients in this study gave written consent for sample collection and molecular analysis prior to inclusion. Patients were carefully selected by physicians from the Department of Cardiology, Toulouse University Hospital, prior to coronary by-pass surgery. Bioinformatics. Microarray expression data from human heart samples were downloaded from the GEO repository (GSE1145). This series consisted of 107 myocardial samples collected from patients undergoing cardiac transplantation whose failure arises from different etiologies (e.g. idiopathic dilated cardiomyopathy, ischemic cardiomyopathy, valvular cardiomyopathy, and hypertrophic cardiomyopathy) and from “normal” organ donors whose hearts cannot be used for transplants. Arrays were intensity normalized and hierarchical clustering (average group linkage, Pearson correlation, threshold r=0.8) was applied to identify groups of co-expressed genes. ApoO expression levels were plotted for the 107 human hearts tested and used to define relevant molecular pathways using both Toppgene and Ingenuity Pathway Analysis (Ingenuity systems, Redwood City, Calif., USA). ApoO subcellular localization was predicted using Mitopred, mitoprot and YLoc. Animals: All animal Studies followed the INSERM Institute Animal Facility guidelines and were approved by the animal care committees of the INSERM I2MC UMR 1048. All animal procedures were performed according to the guidelines of the French Ministry of Agriculture. Animals were housed at the Toulouse I2MC animal facility in a room lit 12 h per day (6 AM-6 PM) at an ambient temperature of 22+/−1° C. […] All ApoO sequences within the expression vectors were verified by DNA double strand sequencing using ABI PRISM®BigDye™ Terminator version 3.1 Ready reaction cycle sequencing kit (Life Technologies SAS, Villebon sur Yvette) and loaded on an ABI 3130XL DNA sequencing instrument (Life Technologies SAS, Villebon sur Yvette). […]

[1] = tested on: fatty acid transporter (CD36 and FATP4); experiment: Real-time PCR of fatty acid transporter expression in cardiac myoblasts; type: cell-based; conditions: ApoO cells vs control (FIG. 6A-B)
From the text: (§1) After ethical committee approval, all patients in this study gave written consent for sample collection and molecular analysis prior to inclusion. Patients were carefully selected by physicians from the Department of Cardiology, Toulouse University Hospital, prior to coronary by-pass surgery. Bioinformatics. Microarray expression data from human heart samples were downloaded from the GEO repository (GSE1145). This series consisted of 107 myocardial samples collected from patients undergoing cardiac transplantation whose failure arises from different etiologies (e.g. idiopathic dilated cardiomyopathy, ischemic cardiomyopathy, valvular cardiomyopathy, and hypertrophic cardiomyopathy) and from “normal” organ donors whose hearts cannot be used for transplants. Arrays were intensity normalized and hierarchical clustering (average group linkage, Pearson correlation, threshold r=0.8) was applied to identify groups of co-expressed genes. […] All ApoO sequences within the expression vectors were verified by DNA double strand sequencing using ABI PRISM®BigDye™ Terminator version 3.1 Ready reaction cycle sequencing kit (Life Technologies SAS, Villebon sur Yvette) and loaded on an ABI 3130XL DNA sequencing instrument (Life Technologies SAS, Villebon sur Yvette). […]

VDAC = experiment: Blue Native Page and GST pull-down with heart mitochondria protein extracts; type: binding, mouse; conditions: BN-PAGE and GST pull-down
From the text: as §1

B1: ApoO: 198-amino acid apolipoprotein, SEQ ID NO: 1; tested by overexpression from expression vectors or transgene (protein, listed as Homo sapiens)
chain: MFKVIQRSVGPASLSLLTFKVYAAPKKDSPPKNSVKVDELSLYSVPEGQSKYVEEARSQLEESISQLRHYCEPYTTWCQETYSQTKPKMQSLVQWGLDSYDYLQNAPPGFFPRLGVIGFAGLIGLLLARGSKIKKLVYPPGFMGLAASLYYPQQAIVFAQVSGERLYDWGLRGYIVIEDLWKENFQKPGNVKNSPGTK
In the case of B1, the “increase of total intracellular fatty acids” value (H9c2 cardiac myoblasts; ApoO expressing cells vs control (FIG. 6E)) is reported as 120%, the “accumulation of green fluorescent BODIPY-palmitate” value (H9c2 cardiac myoblasts; ApoO expressing cells, 2 min incubation (FIG. 6D)) is reported as “rapid accumulation” and the “fatty acid transporter (CD36 and FATP4) expression” value [1] is reported as “strongly increased”. The “interaction with VDAC” value (VDAC) was “excluded any interaction”.
